Patent US20120294879A1, “CONSENSUS SEQUENCE FOR INFLUENZA A VIRUS” (priority 2009, published 2012)

What follows are substances tested against HLA-B7 (B*0702), chimeric heavy chain with HLA-B*0702 α1 and α2 domains and H-2Kd murine α3 domain, (human; mouse), B*07:0 (assay: cell-based or functional assay).
“PB1 328-344 peptide of influenza virus A/New York/348/2003 (H1N1)” showed an IFN-γ ELISpot at 10 µg/ml peptide, splenocytes of immunized HLA transgenic mice of 60 and a lowest concentration of peptide giving positive ELISpot response of 10 µg/mL. “PB2 500-516 peptide of influenza virus A/New York/348/2003 (H1N1)” was tested, and the IFN-γ ELISpot at 10 µg/ml peptide, splenocytes of immunized HLA transgenic mice was 184 and the lowest concentration of peptide giving positive ELISpot response was 0.1 µg/mL.

The substances below were run against HLA-DR2 (DRB1*1501), chimeric DRA1*0101:I-Eα and DRB1*1501:I-Eβ, as expressed in HLA-DR2 transgenic mice (human; mouse) (UniProt Q8BHN5) (assay: cell-based or functional assay).
UniProt Q8BHN5, sequence (Q8BHN5 whole entry, change not shown): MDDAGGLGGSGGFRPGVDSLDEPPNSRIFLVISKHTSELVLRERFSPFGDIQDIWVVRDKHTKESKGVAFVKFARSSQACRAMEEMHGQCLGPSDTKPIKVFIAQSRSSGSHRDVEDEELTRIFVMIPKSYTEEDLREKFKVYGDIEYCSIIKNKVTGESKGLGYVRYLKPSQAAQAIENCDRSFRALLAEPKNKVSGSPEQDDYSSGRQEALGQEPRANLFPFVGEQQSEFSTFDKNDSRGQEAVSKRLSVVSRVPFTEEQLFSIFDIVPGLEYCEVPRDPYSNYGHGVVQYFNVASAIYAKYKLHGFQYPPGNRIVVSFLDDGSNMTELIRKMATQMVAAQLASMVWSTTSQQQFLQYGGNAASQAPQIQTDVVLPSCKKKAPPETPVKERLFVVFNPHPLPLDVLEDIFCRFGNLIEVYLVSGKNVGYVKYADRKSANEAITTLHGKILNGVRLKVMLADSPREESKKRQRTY
“PB2 524-540 peptide of influenza virus A/New York/348/2003 (H1N1)” was tested, and the IFN-γ ELISpot at 10 µg/ml peptide, splenocytes of immunized HLA transgenic mice was 151 and the lowest concentration of peptide giving positive ELISpot response was 0.1 µg/mL. In the case of “PB1 560-576 peptide of influenza virus A/New York/348/2003 (H1N1)”, the IFN-γ ELISpot at 10 µg/ml peptide, splenocytes of immunized HLA transgenic mice is reported as 194 and the lowest concentration of peptide giving positive ELISpot response is reported as 0.1 µg/mL. Work on “NP 408-424 peptide of influenza virus A/New York/348/2003 (H1N1)” yielded an IFN-γ ELISpot at 10 µg/ml peptide, splenocytes of immunized HLA transgenic mice of 110 and a lowest concentration of peptide giving positive ELISpot response of 1 µg/mL. “PB1 519-535 peptide of influenza virus A/New York/348/2003 (H1N1)” gave an IFN-γ ELISpot at 10 µg/ml peptide, splenocytes of immunized HLA transgenic mice of 75 and a lowest concentration of peptide giving positive ELISpot response of 0.1 µg/mL. In the case of “NP 133-149 peptide of influenza virus A/New York/348/2003 (H1N1)”, the IFN-γ ELISpot at 10 µg/ml peptide, splenocytes of immunized HLA transgenic mice is reported as 238 and the lowest concentration of peptide giving positive ELISpot response is reported as 0.1 µg/mL. For “PB1 465-481 peptide of influenza virus A/New York/348/2003 (H1N1)”, the IFN-γ ELISpot at 10 µg/ml peptide, splenocytes of immunized HLA transgenic mice was 231 and the lowest concentration of peptide giving positive ELISpot response was 1 µg/mL. Substance “PB2 548-564 peptide of influenza virus A/New York/348/2003 (H1N1)” has an IFN-γ ELISpot at 10 µg/ml peptide, splenocytes of immunized HLA transgenic mice of 96. “PB1 358-374 peptide of influenza virus A/New York/348/2003 (H1N1)” was tested, and the IFN-γ ELISpot at 10 µg/ml peptide, splenocytes of immunized HLA transgenic mice was 84 and the lowest concentration of peptide giving positive ELISpot response was 0.1 µg/mL. “NP 402-418 peptide of influenza virus A/New York/348/2003 (H1N1)” gave an IFN-γ ELISpot at 10 µg/ml peptide, splenocytes of immunized HLA transgenic mice of 207 and a lowest concentration of peptide giving positive ELISpot response of 0.1 µg/mL. In the case of “PB1 352-368 peptide of influenza virus A/New York/348/2003 (H1N1)”, the IFN-γ ELISpot at 10 µg/ml peptide, splenocytes of immunized HLA transgenic mice is reported as 52 and the lowest concentration of peptide giving positive ELISpot response is reported as 1 µg/mL. “M1 169-185 peptide of influenza virus A/New York/348/2003 (H1N1)” showed an IFN-γ ELISpot at 10 µg/ml peptide, splenocytes of immunized HLA transgenic mice of 56 and a lowest concentration of peptide giving positive ELISpot response of 0.1 µg/mL. “PB1 554-570 peptide of influenza virus A/New York/348/2003 (H1N1)” gave an IFN-γ ELISpot at 10 µg/ml peptide, splenocytes of immunized HLA transgenic mice of 109 and a lowest concentration of peptide giving positive ELISpot response of 1 µg/mL. For “PB1 525-541 peptide of influenza virus A/New York/348/2003 (H1N1)”, the IFN-γ ELISpot at 10 µg/ml peptide, splenocytes of immunized HLA transgenic mice was 159 and the lowest concentration of peptide giving positive ELISpot response was 0.1 µg/mL. In the case of “PB2 630-646 peptide of influenza virus A/New York/348/2003 (H1N1)”, the IFN-γ ELISpot at 10 µg/ml peptide, splenocytes of immunized HLA transgenic mice is reported as 104 and the lowest concentration of peptide giving positive ELISpot response is reported as 0.1 µg/mL.
